Experimental data published in patent CN113185608A.

B1: 1H10+3λ5 (antibody, V domains shown)
VH: EVQLVQSGGGLVQPGGSLRLSCAASVEAFSTYWMNWVRQAPGKGLEWVANINRDGSQKYYVDSVEGRFTISRDNAKSSLYLQMNSLRADDTAVYYCMSGYDSGHWGQGSLVTVSS
VL: SQAVVTQEPSLTVSPGGTVTLTCGSSTGAVTSGLYAYWFQQKPGQVPRTLSTGAVIYNISNKQSWTPARFSGSLLGGKAALTLSGAQPEDEADYYCLLSYSRTRVFGGGTKLTVLG
B2: 1H16+3λ7 (antibody, V domains shown)
VH: EVQLVESGGGLVQPGGSLRLSCAASGFTFSTYWMNWVRQAPGKGLEWVANINRDGSQKYYVDSVEGRFTISRDNAKSSLYLQMNSLRADDTAVYYCMSGYDSGHWGQGSLVTVSS
VL: SQAVVTQEPSLTVSPGGTVTLTCGSSTGAVTSGLYAYWTVTFQQKPGQVPRTLIYNISNKQSWTPARFSGSLLGGKAALTLSGAQPEDEADYYCLLSYSRTRVFGGGTKLTVLG
B3: 1H17+3λ8 (antibody, V domains shown)
VH: EVQLLESGGGLVQPGGSLRLSCAASGFTFSTYWMNWVRQAPGKGLEWVANRDGSQKYYVDSVEGRFTISRDNAKSSLYLQMNSLRADDTAVYYCMSGYDSGHWGQGSTVTVSS
VL: ANFMLTQEPSLTVSPGGTVTLTCGSSTGAVTSGLYAYWFQQKPGQVPRTLIYNISNKQSWTPARFSGSLLGGKAALTLSGPEDEADYYCLLSYSRTRVFGGGTKLTVLG
B4: 1H3+3λ1 (antibody, V domains shown)
VH: VHSQVQLVESGGGVVQPGRSLRLSCAASGFTFSSYAMHWVRQAPGKGLEWVAVISYDGNKYYADSVKGRFTISRDNSKNTLYLQMNSLRDEDTAVYYCARAPDCSGGSCSTEYFQHWGQGTLVTVSS
VL: SWAQSVLTQEPSLTVSPGGTVTLTCGSSTGAVTSGLYAYWFQQKPGQVPRTLIYNISNKQSWTPARFSGSLLGGKAALTLSGAQPEDEADYYCLLSYSRTRVFGTKLTVLGQPKAAPSVTLFP
B5: 1H18+3λ10 (antibody, V domains shown)
VH: EVQLVQSGGGLVQPGGSLRLSCAASGFTFSTYWMNWVRLSQTPGKGLEWVANINRDGSQKYYVDSVEGRFTISRLSDNAKSSLYLQMNSLRADDTAVYYCMSGYDSGHWGQGSTVTVSS
VL: SQTVVTQEPSLTVSPGGTVTLTCGSSTGAVTSGLYAQQKPGQVPRTLIYNISNKQSWTPARFSGSLLGGKAALTLSGAQPEDEADYYCLLSYSRTRVFGGGTKLTVLG

molecular target: 狂犬病毒糖蛋白(Glycoprotein，GP) (Rabies virus (RABV)); assay: ELISA of HEK293T transfection supernatant

With B1 as the binder, how does the OD (ELISA) read?
Its OD (ELISA) is over 1.1 OD.

With B2 as the binder, how does the OD (ELISA) read?
Its OD (ELISA) is over 1.1 OD.

For B3, which OD (ELISA) is on record?
Its OD (ELISA) is over 1.1 OD.

How did the OD (ELISA) turn out when B4 was run?
The OD (ELISA) was over 1.1 OD.

How did the OD (ELISA) turn out when B5 was run?
Its OD (ELISA) is over 1.1 OD.
